{
  "source": "paper PMC5703881",
  "assay_in_all_cases": "SPR",
  "details_in_all_cases": "Bead assay: PBS with 1% BSA, antibody 0.2 or 2 ug/ml, 1 h, 22 C; SPR conditions not in the material",
  "key": {"[1]": {"tested_on": "71F12 GL (germline-reverted) (human)"}, "71F12GL-SFH (human)": {"tested_on": "71F12GL-SFH (human)"}, "72H11 IgG (human)": {"tested_on": "72H11 IgG (human)"}, "71F12GL-SF (human)": {"tested_on": "71F12GL-SF (human)"}},
  "data": [
    {"sequence": "TTTTT [5-mer T5]", "values": [
      {"measurement": "fold reduction in affinity (fold lower affinity than 71F12)", "setting": "[1]", "result": 50}
    ]},
    {"sequence": "GGGGGGGGT [9-mer G8T]", "values": [
      {"measurement": "fold reduction in affinity (fold lower affinity than for GGGGGGTTT)", "setting": "71F12GL-SFH (human)", "result": 150}
    ]},
    {"sequence": "TAATACGACTCACTATAGGG (double strand) [biotinylated 20-bp dsDNA (Fig. 4A)]", "values": [
      {"measurement": "Kd", "setting": "72H11 IgG (human)", "result": 0.4, "unit": "µM"}
    ]},
    {"sequence": "GGGGGGTTT [9-mer G6T3]", "values": [
      {"measurement": "fold reduction in affinity (fold lower affinity than 71F12GL-SFH)", "setting": "71F12GL-SF (human)", "result": 30}
    ]}
  ]
}
